Molecular target: SARS-CoV-2 Spike S1, 6x His-tagged recombinant protein (16-685 aa, YP_009724390.1) (SARS-CoV-2, UniProt P0DTC2 16-685)
Assay: ELISA

B1: galectin-8 (LGALS8) recombinant protein (1-317 aa, AAF19370.1) (natural protein)
chain: MMLSLNNLQNIIYNPVIPFVGTIPDQLDPGTLIVIRGHVPSDADRFQVDLQNGSSMKPRADVAFHFNPRFKRAGCIVCNTLINEKWGREEITYDTPFKREKSFEIVIMVLKDKFQVAVNGKHTLLYGHRIGPEKIDTLGIYGKVNIHSIGFSFSSDLQSTQASSLELTEISRENVPKSGTPQLRLPFAARLNTPMGPGRTVVVKGEVNANAKSFNVDLLAGKSKDIALHLNPRLNIKAFVRNSFLQESWGEEERNITSFPFSPGMYFEMIIYCDVREFKVAVNGVHSLEYKHRFKELSSIDTLEINGDIHLLEVRSW
binding result: binds
